The chains are these.
T1: wild-type sβc, soluble extracellular domain of human βc (human, UniProt P32927 17-443)
T1 construct: extracellular domain; Expressed in Sf21 cells
T1 sequence (looked up): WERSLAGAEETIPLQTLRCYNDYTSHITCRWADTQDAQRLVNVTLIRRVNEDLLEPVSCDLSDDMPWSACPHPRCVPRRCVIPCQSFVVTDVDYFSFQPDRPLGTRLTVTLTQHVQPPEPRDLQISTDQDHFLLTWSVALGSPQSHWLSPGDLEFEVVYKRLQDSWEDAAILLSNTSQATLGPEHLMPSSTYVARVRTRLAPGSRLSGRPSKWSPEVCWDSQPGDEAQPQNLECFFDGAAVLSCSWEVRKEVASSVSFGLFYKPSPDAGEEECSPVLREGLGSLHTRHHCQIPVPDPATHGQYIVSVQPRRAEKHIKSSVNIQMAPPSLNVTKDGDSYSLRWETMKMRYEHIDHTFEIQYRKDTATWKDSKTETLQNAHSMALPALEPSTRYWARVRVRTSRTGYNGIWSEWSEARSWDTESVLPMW

B1: sβc N346Q, soluble extracellular domain of human βc with the third N-glycosylation site removed (receptor, UniProt P32927 17-443, looked up)
chain: T1 sequence (looked up) with N330Q
modifications: N-linked carbohydrate at Asn58 (NAG-NAG-MAN) and Asn191 (NAG)
notes: extracellular domain; Intertwined homodimer; Cloned into pIBV5-His; also called sβc ΔN3; GM-CSF βc chain
B2: IL-3, P08700 20-152 (ligand, UniProt P08700 20-152, looked up)
chain: APMTQTTPLKTSWVNCSNMIDEIITHLKQPPLPLLDFNNLNGEDQDILMENNLRRPNLEAFNRAVKSLQNASAIESILKNLLPCLPLATAAPTRHPIHIKDGDWNEFRRKLTFYLKTLENAQAQQTTLSLAIF
modifications: here or on the partner: radio-iodinated (125I) in the COS cell binding assays
B3: sGM-CSFRα, soluble extracellular domain of the GM-CSF receptor alpha chain, expressed in Sf21 insect cells (receptor, human, UniProt P15509 23-320, looked up)
chain: EKSDLRTVAPASSLNVRFDSRTMNLSWDCQENTTFSKCFLTDKKNRVVEPRLSNNECSCTFREICLHEGVTFEVHVNTSQRGFQQKLLYPNSGREGTAAQNFSCFIYNADLMNCTWARGPTAPRDVQYFLYIRNSKRRREIRCPYYIQDSGTHVGCHLDNLSGLTSRNYFLVNGTSREIGIQFFDSLLDTKKIERFNPPSNVTVRCNTTHCLVRWKQPRTYQKLSYLDFQYQLDVHRKNTQPGTENLLINVSGDLENRYNFPSSEPRAKHSVKIRAADVRILNWSSWSEAIEFGSDDG
modifications: N-linked carbohydrate at Asn229 (modeled as NAG-NAG)
notes: extracellular domain; Cloned into the pIBV5-His vector; Residues 218-316 (domain 2) were traced in the crystal; also called GMRα

Data set [1] deals with the molecule itself. In words: X-ray crystal structure, 3.3 Å. As for the experimental part: (§1) The structure was determined by molecular replacement using the method of Storoni et al, Acta Crystallogr. D 60:432, 2004.
(§2) A homology model of domain 2 of the alpha chain was built into this density. […] D Biol. Crystallogr. 50:760, 1994 and refinement using the method of Murshudov et al, Acta Crystallogr. D 53:240, 1997. […] During the final refinement step each subunit was treated as a rigid body for the purposes of TLS (translation, libration and screw rotation tensors) refinement to account for overall differences in displacements between the molecules and anisotropy in the data (Winn et al, Acta Crystallogr. D 57:122, 2001; Painter and Merritt, Acta Crystallogr. D 62:439, 2006).

The target in data set [2] is IL-3 receptor on cells: IL3Rα co-expressed with the βc4 Gpoly-A mutant (M7-βc) (human), P26951. In words: cell-based or functional assay.
In data set [3] the target is B1. In words: X-ray crystal structure, 3.3 Å. As for the experimental part:
as §1, §2

Data set [4] has as its target T1, wild-type sβc, soluble extracellular …. In words: ternary complex formation of soluble proteins (all three present); wild type as the reference.

Positions count from the first letter of the chain named. Numbers in names are those of the source.

IL-3 receptor on cells: IL3Rα co-expressed with the βc4 Gpoly-A mutant (M7-βc) (human), P26951, sequence (P26951 19-378, change not shown): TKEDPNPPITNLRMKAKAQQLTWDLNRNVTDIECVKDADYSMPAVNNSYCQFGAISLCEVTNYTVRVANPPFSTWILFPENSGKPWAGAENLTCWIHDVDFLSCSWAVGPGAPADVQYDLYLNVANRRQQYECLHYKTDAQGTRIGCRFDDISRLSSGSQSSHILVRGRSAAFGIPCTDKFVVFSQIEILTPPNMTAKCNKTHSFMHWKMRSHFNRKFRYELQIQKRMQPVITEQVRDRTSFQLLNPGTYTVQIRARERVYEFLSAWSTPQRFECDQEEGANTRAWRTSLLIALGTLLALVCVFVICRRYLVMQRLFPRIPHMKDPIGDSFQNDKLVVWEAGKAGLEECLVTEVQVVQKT

Turning to B1, the binding result in data set [1] is on record as “binds”.

In data set [2], B2 yielded an ED50 of proliferation of CTL-EN cells in response to IL-3 of 0.0103 µg/mL and a fold increase of ED50 against wild type βc of 413 fold. In the case of B3, the binding result in data set [3] and in data set [4] was “binds” throughout.
